Residue numbers refer to the chain shown, from its start.
B1: PRT-130 (protein)
chain: MRNATEAYAKEVPHQITSVWTKGVTPLTPEQFRYNNEDVIHAPYLAHQGWYDITKAFDGKDNLLCGAATAGNMLHWWFDQNKTEIEAYLSKHPEKQKIIFNNQELFDLKAAIDTKDSQTNSQLFNYFRDKAFPNLSARQLGVMPDLVLDMFINGYYLNVFKTQSTDVNRPYQDKDKRGGIFDAVFTRGDQTTLLTARHDLKNKGLNDISDIIKQELTEGRALALSHTYANVSISHVINLWGADFNAEGNLEAIYVTDSDSNASIGMKKYFVGINAAGHVAISAKKIEGENIGAQVLGLFTLSSGKDIWQKLS
B2: PRT-141 (protein)
chain: B1 chain with D210T, S260A
B3: PRT-138 (protein)
chain: B1 chain with L27P, D210T, S260A, A276H
B4: PRT-132 (protein)
chain: B1 chain with H14K, L27P, G204T, D210T, S260A, A276H
B5: PRT-11 (protein)
chain: MANQEIRYSEETPYHVTSVWTKGVTPPANFTQGEDVFHAPYVANQGWYDITKTFNGKDDLLCGAATAGNMLHWWFDQNKDQIEKYLKEHPEKQKINFNGEQMFDVKEAIDTKDSQTDSKLFEYFKEKAFPYLSTKHLGVFPDHVIDMFINGYRLSLTNHGPTPVKEQSKDPRGGIFDAVFTRGDQSKLLTSRHDFKEKTLKEISDLIKKELSEGKALGLSHTYANVRINHVINLWGADFDSNGNLKAIYVTDSDSNASIGMKKYFVGVNSAGKVAISAKEIKEDNIGAQVLGLFTLSTGQDIWNQTN
B6: PRT-127 (protein)
chain: MRNATEAYAKEVPHQITSVWTKGVTPLTPEQFRYNNEDVIHAPYLANQGWYDITKTFNGKDNLLCGAATAGNMLHWWFDQNKTEIEAYLKKHPEKQKIIFNNQELFDLKAAIDTKDSQTNSQLFNYFRDKAFPNLSARQLGVMPDLVLDMFINGYYLNVFKTQSTDVNRPYQDKDKRGGIFDAVFTRGDQTTLLTARHDLKNKGLNEISTLIKQELTEGKALALSHTYANVSISHVINLWGADFNAEGNLEAIYVTDSDSNASIGMKKYFVGVNAHGKVAISAKKIEGENIGAQVLGLFTLSSGKDIWQKLS
B7: PRT-133 (protein)
chain: B1 chain with A56T, D210T, S260A, A276H
B8: PRT-137 (protein)
chain: B1 chain with D210T, S260A, A276H, H278K
B9: PRT-131 (protein)
chain: B6 chain with N47H, T56A, L211I, K220R, S260A, V273I
B10: PRT-140 (protein)
chain: B1 chain with D58N, D210T, S260A, A276H
B11: PRT-136 (protein)
chain: B1 chain with D210T, S260A, I273V, A276H
B12: PRT-129 (protein)
chain: B1 chain with I40F, H47N, T192K, D210T, I211L, S260A, A276H
B13: PRT-134 (protein)
chain: B1 chain with D210T, I211L, S260A, A276H
B14: PRT-139 (protein)
chain: B1 chain with H47N, D210T, S260A, A276H
B15: PRT-135 (protein)
chain: B1 chain with D210T, R220K, S260A, A276H
B16: PRT-128 (protein)
chain: B6 chain with H14K, L27P, K90S, G204T, E207D, S260A
B17: PRT-12 (protein)
chain: MANQEIRYSEVTPYHVTSVWTKGVTPPADFTQGEDVFHAPYKANQGWYDITKTFNGKDDLLCGAATAGNMLHWWFDQNKDQIERYLKEHPEKQKINFNGEQMFDVKEAIDTKDSQTDSKLFEYFKEKAFPYLSTKHLGVFPDHVIDMFINGYRLSLTNHGPTPVKRGSKDPRGGFFDAVFTRGDQSKLLTSRHDFKEKTLNEISDLIKKELTEGKALGLSHTYANVRINHVINLWGADFDSNGNLEAIYVTDSDSNASIGMKKYFVGVNSAGKVAISAKEIKEDNIGAQVLGLFTLSTGQDIWEQTN

Target: pooled human IgG

Protein	Enzyme Activity Endpoint Assay (purified): Fab'2 [ng/µL]	Enzyme Activity Endpoint Assay (purified): Fc [ng/µL]	Enzyme Activity Endpoint Assay (purified): IgG [ng/µL]	Enzyme Activity Endpoint Assay (purified): scIgG [ng/µL]	Enzyme Activity Endpoint Assay: Fab′2 [ng/µL]	Enzyme Activity Endpoint Assay: Fc [ng/µL]	Enzyme Activity Endpoint Assay: IgG [ng/µL]	Enzyme Activity Endpoint Assay: scIgG [ng/µL]
B1	592	192	0	0				
B2	846	215	0	0				
B3	563	215	0	144				
B4	697	219	0	0				
B5					40	100	13	0
B6	523	140	0	0				
B7	774	207	0	12				
B8	662	198	0	0				
B9	745	201	0	0				
B10	755	213	0	0				
B11	635	160	0	0				
B12	384	169	0	0				
B13	597	174	0	0				
B14	733	213	0	0				
B15	526	140	0	6				
B16	560	151	0	60				
B17					47	122	16	14

— patent US20250027068
